Patent publication US20250304644A1, “PEPTIDES TRIPLE AGONISTS OF GIP, GLP-1 AND GLP-2” (BAINAN BIOTECH APS, priority 2021, published 2025)
*1 amine or outer side, *2 acyl side, *3 side chain or, on linkers, in order; H or OH if unused. Where no end group is shown, it is not given here. Side-chain parts run from the residue outwards. [ ]: non-standard residue; d: D form. The star is where a group is joined. C18 diacid = O=C(O)CCCCCCCCCCCCCCCCC(=O)*; γGlu = O=C(O)[C@H](CCC(=O)[*:2])N[*:1]; AEEA = NCCOCCOCC(=O)O; Aib = CC(C)(N)C(=O)O

T1: human SNAP-tagged GLP-2R (human, UniProt O95838 1-553, SNAP tag labeled with Tag-Lite SNAP-Lumi4-Tb)
T1 sequence (looked up): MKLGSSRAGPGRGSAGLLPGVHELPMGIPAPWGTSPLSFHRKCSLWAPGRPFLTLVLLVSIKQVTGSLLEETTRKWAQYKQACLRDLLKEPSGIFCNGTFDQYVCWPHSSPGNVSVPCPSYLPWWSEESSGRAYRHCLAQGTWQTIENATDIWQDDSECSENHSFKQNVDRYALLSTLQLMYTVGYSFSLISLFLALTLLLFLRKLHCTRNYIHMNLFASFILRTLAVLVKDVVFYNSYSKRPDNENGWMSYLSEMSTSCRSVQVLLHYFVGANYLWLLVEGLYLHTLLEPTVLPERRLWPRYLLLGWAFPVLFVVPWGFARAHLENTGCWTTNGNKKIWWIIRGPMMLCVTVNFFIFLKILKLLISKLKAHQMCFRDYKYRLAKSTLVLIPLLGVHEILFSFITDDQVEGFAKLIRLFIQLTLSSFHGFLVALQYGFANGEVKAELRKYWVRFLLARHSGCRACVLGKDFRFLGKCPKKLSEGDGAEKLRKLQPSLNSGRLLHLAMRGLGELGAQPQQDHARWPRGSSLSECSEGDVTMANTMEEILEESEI

T2: human GIPR (glucose-dependent insulinotropic polypeptide receptor) (human, UniProt P48546 22-466)
T2 sequence (looked up): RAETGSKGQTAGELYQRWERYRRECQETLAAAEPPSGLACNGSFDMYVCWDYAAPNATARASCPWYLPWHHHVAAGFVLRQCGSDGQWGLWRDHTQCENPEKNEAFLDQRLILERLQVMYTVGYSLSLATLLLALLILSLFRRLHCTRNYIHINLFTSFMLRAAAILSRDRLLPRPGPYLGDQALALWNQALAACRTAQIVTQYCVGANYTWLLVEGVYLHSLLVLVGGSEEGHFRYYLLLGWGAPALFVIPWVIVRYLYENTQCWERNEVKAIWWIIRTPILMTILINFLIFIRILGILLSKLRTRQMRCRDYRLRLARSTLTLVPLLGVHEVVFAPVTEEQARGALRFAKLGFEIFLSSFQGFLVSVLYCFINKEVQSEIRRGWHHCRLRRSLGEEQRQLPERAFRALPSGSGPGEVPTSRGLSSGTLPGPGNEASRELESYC

T3: human GLP-2R (glucagon-like peptide-2 receptor) (human, UniProt O95838 1-553)
T3 sequence (looked up): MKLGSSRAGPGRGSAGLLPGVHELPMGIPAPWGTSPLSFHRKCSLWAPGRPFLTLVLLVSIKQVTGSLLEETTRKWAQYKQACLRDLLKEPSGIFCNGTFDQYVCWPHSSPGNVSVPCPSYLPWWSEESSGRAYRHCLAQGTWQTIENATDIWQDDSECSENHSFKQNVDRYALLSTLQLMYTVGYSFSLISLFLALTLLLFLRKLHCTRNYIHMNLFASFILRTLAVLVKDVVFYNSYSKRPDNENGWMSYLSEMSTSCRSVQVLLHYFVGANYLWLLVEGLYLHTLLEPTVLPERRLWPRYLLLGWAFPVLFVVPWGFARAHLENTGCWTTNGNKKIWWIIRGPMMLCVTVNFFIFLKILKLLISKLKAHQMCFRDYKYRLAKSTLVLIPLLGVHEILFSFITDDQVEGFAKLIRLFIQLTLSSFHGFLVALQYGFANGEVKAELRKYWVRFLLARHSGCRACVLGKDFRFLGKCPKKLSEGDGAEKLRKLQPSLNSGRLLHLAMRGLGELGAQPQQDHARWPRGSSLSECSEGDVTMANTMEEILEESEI

T4: Human N-terminally SNAP-tagged GIPR (human, UniProt P48546 22-466, SNAP tag labeled with Tag-Lite SNAP-Lumi4-Tb)
T4 sequence (looked up): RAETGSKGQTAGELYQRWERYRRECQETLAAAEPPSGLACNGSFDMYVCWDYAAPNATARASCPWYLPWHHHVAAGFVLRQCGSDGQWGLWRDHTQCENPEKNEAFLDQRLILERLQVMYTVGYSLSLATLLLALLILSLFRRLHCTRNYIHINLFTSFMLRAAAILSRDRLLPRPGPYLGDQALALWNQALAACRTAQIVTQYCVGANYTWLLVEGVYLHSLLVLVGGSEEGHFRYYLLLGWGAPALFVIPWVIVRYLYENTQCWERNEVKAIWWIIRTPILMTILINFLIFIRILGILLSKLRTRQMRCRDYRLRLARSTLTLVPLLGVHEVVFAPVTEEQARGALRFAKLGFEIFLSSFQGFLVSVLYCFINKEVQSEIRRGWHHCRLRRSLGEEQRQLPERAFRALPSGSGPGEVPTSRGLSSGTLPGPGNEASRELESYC


Key:
Experiment in all cases: cell-based or functional assay
human SNAP-tagged GLP-1R = human SNAP-tagged GLP-1R (human, UniProt P43220 24-463, SNAP tag labeled with Tag-Lite SNAP-Lumi4-Tb)
[1] = target: human glucagon receptor (GCGR) (human, UniProt P47871 26-477, limits assumed)
human SNAP-tagged GLP-2R = target: T1, human SNAP-tagged GLP-2R
[2] = target: human GLP-1R (glucagon-like peptide-1 receptor) (human, UniProt P43220 24-463)
[3] = target: T2, human GIPR (glucose-dependent …)
[4] = target: T3, human GLP-2R (glucagon-like peptide-2 …)
[5] = target: T4, Human N-terminally SNAP-tagged GIPR

Sequence of human glucagon receptor (GCGR) (P47871 26-477 limits assumed): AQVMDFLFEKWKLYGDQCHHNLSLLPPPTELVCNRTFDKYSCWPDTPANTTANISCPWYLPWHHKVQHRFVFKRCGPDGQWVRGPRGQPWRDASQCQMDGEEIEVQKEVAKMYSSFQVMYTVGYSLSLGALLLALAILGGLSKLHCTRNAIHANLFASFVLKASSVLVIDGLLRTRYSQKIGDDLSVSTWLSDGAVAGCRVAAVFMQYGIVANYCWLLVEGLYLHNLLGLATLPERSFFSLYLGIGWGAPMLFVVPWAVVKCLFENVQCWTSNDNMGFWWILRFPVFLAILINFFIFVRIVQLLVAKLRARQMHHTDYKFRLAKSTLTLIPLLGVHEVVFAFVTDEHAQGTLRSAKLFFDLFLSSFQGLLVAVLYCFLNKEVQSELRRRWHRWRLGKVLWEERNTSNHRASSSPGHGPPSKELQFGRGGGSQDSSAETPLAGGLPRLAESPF

| Binder | Absolute hGLP-1R internalization (AUC) (human SNAP-tagged GLP-1R) | Relative hGLP-1R internalization (%) (human SNAP-tagged GLP-1R) | potency in Gs activation, measured as cAMP accumulation (-p Log EC50) [1] | Absolute hGLP-2R internalization (AUC) (human SNAP-tagged GLP-2R) | Relative hGLP-2R internalization (%) (human SNAP-tagged GLP-2R) | EC50 (nM) GLP-1R [2] | Efficacy GLP-1R [2] | logEC50 GLP-1R [2] | EC50 (nM) GIPR [3] | Efficacy GIPR [3] | pEC50 GIPR [3] | EC50 (nM) GLP-2R [4] | Efficacy GLP-2R [4] | logEC50 GLP-2R [4] | Absolute hGIPR internalization (AUC) [5] | Relative hGIPR internalization (%) [5] |
| --- | --- | --- | --- | --- | --- | --- | --- | --- | --- | --- | --- | --- | --- | --- | --- | --- |
| HADGTFTSDYSTILDK([AEEA-AEEA-γGlu-C18 diacid])LAARDFINWLIQTKGKKNDWKHNITQ-OH [Compound 21] | 94.7 AUC | 113% | < 7 -p Log EC50 | 36.3 AUC | 74.6% | 0.05 nM | 122 | 10.3 | 0.398 nM | 104 | 9.4 | 0.6 nM | 104 | 9.2 | 10.2 AUC | 28% |
| HADGTFTSDYSIILDK([AEEA-AEEA-γGlu-C18 diacid])LAARDFINWLIQTKGKKNDWKHNITQ-OH [Compound 20] | 91.8 AUC | 109% | < 7 -p Log EC50 | 39.4 AUC | 81% | 0.04 nM | 112 | 10.4 |  |  |  | 0.3 nM | 100 | 9.5 | 14.2 AUC | 38% |
| HADGTFTSDYST[Aib]LDK([AEEA-AEEA-γGlu-C18 diacid])LAARDFINWLIQTKGKKNDWKHNITQ-OH [Compound 22] | 78.8 AUC | 93.7% | < 7 -p Log EC50 | 38 AUC | 78.2% | 0.04 nM | 116 | 10.5 | 1.12 nM | 93 | 9 | 0.6 nM | 93 | 9.3 | 7 AUC | 19% |
